Data as given in patent US20140057284A1, “PHOTOLUMINESCENT MOLECULAR COMPLEX AND METHOD FOR DETERMINING OF THE CONCENTRATION OF SAID MOLECULAR COMPLEX” (priority 2011, published 2014).

Legend:
ABL = ABL (Homo sapiens, UniProt P00519); assay: biochemical; conditions: read-out: Percentages of residual activities of the kinase reaction
Description: (§1) Selectivity testing (Table 2) was performed on the commercial basis at the Division of Signal Transduction Therapy, University of Dundee. ATP concentrations that were used in testing were close to the Km value of the kinase.

BRSK1 = BRSK1 (Homo sapiens, UniProt Q8TDC3); assay: biochemical; conditions: read-out: Percentages of residual activities of the kinase reaction
Sequence of BRSK1 (Q8TDC3 whole entry, species assumed): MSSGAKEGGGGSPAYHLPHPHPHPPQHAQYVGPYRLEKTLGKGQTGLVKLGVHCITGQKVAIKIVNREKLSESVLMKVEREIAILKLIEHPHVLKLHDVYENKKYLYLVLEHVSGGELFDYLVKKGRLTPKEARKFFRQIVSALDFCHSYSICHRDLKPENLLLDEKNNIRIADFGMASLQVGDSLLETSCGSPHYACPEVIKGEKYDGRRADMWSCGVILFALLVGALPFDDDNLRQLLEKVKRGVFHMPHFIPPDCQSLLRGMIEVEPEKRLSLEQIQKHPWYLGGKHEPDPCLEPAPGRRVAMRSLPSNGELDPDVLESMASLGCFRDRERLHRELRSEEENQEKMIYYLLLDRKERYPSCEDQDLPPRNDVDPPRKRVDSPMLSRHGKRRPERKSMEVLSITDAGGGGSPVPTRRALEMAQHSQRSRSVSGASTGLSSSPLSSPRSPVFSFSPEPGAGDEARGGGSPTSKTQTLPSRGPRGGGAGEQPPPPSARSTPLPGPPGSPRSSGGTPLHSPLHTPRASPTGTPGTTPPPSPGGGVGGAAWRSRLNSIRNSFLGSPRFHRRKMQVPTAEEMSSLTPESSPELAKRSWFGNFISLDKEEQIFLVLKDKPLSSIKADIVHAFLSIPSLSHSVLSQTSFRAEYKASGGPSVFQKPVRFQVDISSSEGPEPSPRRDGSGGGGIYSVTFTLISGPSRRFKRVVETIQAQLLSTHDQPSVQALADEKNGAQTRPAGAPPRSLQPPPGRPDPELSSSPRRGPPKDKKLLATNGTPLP
Description: as §1

DYRK2 = DYRK2 (Homo sapiens, UniProt Q92630); assay: biochemical; conditions: read-out: Percentages of residual activities of the kinase reaction
Description: as §1

EPH-B2 = EPH-B2 (Homo sapiens, UniProt P29323); assay: biochemical; conditions: read-out: Percentages of residual activities of the kinase reaction
Description: as §1

EPH-B3 = EPH-B3 (Homo sapiens, UniProt P54753); assay: biochemical; conditions: read-out: Percentages of residual activities of the kinase reaction
Description: as §1

ERK8 = ERK8 (Homo sapiens, UniProt Q8TD08); assay: biochemical; conditions: read-out: Percentages of residual activities of the kinase reaction
Description: as §1

FGF-R1 = FGF-R1 (Homo sapiens, UniProt P11362); assay: biochemical; conditions: read-out: Percentages of residual activities of the kinase reaction
Description: as §1

HER4 = HER4 (Homo sapiens, UniProt Q15303); assay: biochemical; conditions: read-out: Percentages of residual activities of the kinase reaction
Sequence of HER4 (Q15303 26-1308, species assumed): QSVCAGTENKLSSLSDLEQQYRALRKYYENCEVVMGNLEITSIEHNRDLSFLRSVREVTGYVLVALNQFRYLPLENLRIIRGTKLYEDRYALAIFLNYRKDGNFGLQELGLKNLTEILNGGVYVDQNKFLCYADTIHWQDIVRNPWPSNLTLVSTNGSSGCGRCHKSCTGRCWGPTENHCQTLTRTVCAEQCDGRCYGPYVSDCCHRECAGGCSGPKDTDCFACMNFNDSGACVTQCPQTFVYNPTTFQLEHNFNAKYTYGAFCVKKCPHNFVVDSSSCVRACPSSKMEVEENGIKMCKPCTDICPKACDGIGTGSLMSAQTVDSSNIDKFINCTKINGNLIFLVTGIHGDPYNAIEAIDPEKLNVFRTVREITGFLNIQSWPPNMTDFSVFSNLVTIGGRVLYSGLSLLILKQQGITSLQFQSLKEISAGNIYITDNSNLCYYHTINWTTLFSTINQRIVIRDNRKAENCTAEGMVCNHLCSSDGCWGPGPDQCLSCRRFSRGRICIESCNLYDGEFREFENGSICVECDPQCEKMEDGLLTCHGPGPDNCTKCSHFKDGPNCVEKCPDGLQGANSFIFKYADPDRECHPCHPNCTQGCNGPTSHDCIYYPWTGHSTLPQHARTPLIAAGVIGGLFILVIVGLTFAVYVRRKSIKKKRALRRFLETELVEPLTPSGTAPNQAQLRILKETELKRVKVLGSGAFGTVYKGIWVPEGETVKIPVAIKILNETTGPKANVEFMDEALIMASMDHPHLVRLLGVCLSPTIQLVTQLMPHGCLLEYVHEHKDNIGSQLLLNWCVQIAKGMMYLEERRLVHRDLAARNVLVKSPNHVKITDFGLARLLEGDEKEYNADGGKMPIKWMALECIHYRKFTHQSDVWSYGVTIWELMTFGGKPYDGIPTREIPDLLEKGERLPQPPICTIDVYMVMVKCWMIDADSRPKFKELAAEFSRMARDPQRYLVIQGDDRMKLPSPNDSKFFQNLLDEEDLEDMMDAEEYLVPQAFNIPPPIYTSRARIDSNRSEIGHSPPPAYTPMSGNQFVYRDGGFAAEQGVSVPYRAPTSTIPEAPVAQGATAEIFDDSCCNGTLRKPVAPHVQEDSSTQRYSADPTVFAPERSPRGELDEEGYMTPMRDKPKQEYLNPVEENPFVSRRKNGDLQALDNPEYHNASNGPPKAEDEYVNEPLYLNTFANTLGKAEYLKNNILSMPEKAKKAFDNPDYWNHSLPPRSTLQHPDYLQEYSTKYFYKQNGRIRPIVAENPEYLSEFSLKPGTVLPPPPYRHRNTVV
Description: as §1

HIPK1 = HIPK1 (Homo sapiens, UniProt Q86Z02); assay: biochemical; conditions: read-out: Percentages of residual activities of the kinase reaction
Description: as §1

HIPK2 = HIPK2 (Homo sapiens, UniProt Q9H2X6); assay: biochemical; conditions: read-out: Percentages of residual activities of the kinase reaction
Description: as §1

HIPK3 = HIPK3 (Homo sapiens, UniProt Q9H422); assay: biochemical; conditions: read-out: Percentages of residual activities of the kinase reaction
Description: as §1

IGF-1R = IGF-1R (Homo sapiens, UniProt P08069); assay: biochemical; conditions: read-out: Percentages of residual activities of the kinase reaction
Description: as §1

IKKb = IKKb (Homo sapiens, UniProt O14920); assay: biochemical; conditions: read-out: Percentages of residual activities of the kinase reaction
Sequence of IKKb (O14920 whole entry, species assumed): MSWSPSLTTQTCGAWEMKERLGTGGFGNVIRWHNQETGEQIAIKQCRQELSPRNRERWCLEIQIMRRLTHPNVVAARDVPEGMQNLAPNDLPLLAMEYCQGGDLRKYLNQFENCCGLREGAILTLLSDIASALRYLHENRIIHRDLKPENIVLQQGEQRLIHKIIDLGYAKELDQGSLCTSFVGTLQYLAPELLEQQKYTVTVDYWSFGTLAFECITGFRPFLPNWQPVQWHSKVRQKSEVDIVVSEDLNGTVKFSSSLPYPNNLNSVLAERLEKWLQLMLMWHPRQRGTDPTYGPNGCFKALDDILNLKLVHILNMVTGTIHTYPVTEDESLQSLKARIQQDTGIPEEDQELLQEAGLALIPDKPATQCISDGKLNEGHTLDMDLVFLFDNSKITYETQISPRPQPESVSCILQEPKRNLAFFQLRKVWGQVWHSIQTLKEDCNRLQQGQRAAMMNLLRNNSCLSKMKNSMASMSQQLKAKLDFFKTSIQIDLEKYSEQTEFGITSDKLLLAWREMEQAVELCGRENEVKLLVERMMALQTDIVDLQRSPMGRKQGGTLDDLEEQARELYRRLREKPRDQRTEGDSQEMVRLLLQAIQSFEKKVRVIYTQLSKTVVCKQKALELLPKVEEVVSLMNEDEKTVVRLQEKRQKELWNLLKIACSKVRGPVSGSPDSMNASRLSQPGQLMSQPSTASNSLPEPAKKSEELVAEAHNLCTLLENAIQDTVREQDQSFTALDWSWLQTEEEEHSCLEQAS
Description: as §1

JAK2 = JAK2 (Homo sapiens, UniProt O60674); assay: biochemical; conditions: read-out: Percentages of residual activities of the kinase reaction
Description: as §1

JNK1 = JNK1 (Homo sapiens, UniProt P45983); assay: biochemical; conditions: read-out: Percentages of residual activities of the kinase reaction
Description: as §1

JNK3 = JNK3 (Homo sapiens, UniProt P53779); assay: biochemical; conditions: read-out: Percentages of residual activities of the kinase reaction
Sequence of JNK3 (P53779 whole entry, species assumed): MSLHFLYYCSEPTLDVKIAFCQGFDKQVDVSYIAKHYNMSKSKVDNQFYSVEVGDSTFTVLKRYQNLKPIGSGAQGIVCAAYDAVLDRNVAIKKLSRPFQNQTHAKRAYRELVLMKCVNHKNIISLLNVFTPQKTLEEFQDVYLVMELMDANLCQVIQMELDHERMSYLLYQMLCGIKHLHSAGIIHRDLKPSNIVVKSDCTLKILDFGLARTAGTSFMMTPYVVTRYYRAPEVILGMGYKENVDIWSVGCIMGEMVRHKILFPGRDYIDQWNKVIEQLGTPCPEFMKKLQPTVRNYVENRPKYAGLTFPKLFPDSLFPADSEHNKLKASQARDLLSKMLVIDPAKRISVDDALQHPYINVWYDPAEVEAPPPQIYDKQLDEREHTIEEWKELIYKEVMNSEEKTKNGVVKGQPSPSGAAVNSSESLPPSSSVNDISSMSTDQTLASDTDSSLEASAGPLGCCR
Description: as §1

LKB1 = LKB1 (Homo sapiens, UniProt Q15831); assay: biochemical; conditions: read-out: Percentages of residual activities of the kinase reaction
Description: as §1

MAPKAP-K2 = MAPKAP-K2 (Homo sapiens, UniProt P49137); assay: biochemical; conditions: read-out: Percentages of residual activities of the kinase reaction
Description: as §1

MAPKAP-K3 = MAPKAP-K3 (Homo sapiens, UniProt Q16644); assay: biochemical; conditions: read-out: Percentages of residual activities of the kinase reaction
Sequence of MAPKAP-K3 (Q16644 whole entry, species assumed): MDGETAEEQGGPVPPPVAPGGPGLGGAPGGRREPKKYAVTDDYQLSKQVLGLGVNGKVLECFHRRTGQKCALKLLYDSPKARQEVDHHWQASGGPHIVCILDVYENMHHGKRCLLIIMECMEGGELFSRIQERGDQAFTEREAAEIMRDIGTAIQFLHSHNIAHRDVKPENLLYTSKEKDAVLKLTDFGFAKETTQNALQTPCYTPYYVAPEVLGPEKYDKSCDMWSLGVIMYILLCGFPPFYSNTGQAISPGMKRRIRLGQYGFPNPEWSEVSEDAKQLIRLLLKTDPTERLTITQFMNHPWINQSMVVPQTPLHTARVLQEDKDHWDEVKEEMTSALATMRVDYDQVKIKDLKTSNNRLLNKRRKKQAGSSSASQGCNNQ
Description: as §1

MARK3 = MARK3 (Homo sapiens, UniProt P27448); assay: biochemical; conditions: read-out: Percentages of residual activities of the kinase reaction
Description: as §1

MEKK1 = MEKK1 (Homo sapiens, UniProt Q13233); assay: biochemical; conditions: read-out: Percentages of residual activities of the kinase reaction
Description: as §1

MELK = MELK (Homo sapiens, UniProt Q14680); assay: biochemical; conditions: read-out: Percentages of residual activities of the kinase reaction
Description: as §1

MKK2 = MKK2 (Homo sapiens, UniProt P36507); assay: biochemical; conditions: read-out: Percentages of residual activities of the kinase reaction
Sequence of MKK2 (P36507 whole entry, species assumed): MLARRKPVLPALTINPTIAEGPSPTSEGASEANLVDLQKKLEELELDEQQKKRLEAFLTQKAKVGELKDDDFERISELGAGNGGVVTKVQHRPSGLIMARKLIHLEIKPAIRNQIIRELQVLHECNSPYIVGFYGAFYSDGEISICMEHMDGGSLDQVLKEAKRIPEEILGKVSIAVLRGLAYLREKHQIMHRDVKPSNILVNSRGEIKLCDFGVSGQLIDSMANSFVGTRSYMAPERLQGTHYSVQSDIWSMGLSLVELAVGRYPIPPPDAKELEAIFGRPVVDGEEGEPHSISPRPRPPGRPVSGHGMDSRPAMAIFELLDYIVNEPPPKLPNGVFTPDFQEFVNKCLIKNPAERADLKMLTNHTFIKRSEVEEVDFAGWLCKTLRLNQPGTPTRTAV
Description: as §1

MLK1 = MLK1 (Homo sapiens, UniProt P80192); assay: biochemical; conditions: read-out: Percentages of residual activities of the kinase reaction
Description: as §1

MPSK1 = MPSK1 (Homo sapiens, UniProt O75716); assay: biochemical; conditions: read-out: Percentages of residual activities of the kinase reaction
Description: as §1

MSK1 = MSK1 (Homo sapiens, UniProt O75582); assay: biochemical; conditions: read-out: Percentages of residual activities of the kinase reaction
Description: as §1

NEK2a = NEK2a (Homo sapiens, UniProt P51955); assay: biochemical; conditions: read-out: Percentages of residual activities of the kinase reaction
Sequence of NEK2a (P51955 whole entry, species assumed): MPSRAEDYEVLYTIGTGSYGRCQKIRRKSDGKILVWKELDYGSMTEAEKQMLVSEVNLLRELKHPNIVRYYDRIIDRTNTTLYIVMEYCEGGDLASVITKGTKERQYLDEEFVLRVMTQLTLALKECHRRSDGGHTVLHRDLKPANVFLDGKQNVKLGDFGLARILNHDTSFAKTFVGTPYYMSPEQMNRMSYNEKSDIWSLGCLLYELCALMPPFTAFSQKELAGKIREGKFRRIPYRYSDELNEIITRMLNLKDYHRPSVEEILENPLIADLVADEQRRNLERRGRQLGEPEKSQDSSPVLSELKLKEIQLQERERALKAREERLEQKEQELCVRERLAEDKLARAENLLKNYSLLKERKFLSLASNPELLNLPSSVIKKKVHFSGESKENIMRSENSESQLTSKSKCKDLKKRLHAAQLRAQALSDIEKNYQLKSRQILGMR
Description: as §1

NUAK1 = NUAK1 (Homo sapiens, UniProt O60285); assay: biochemical; conditions: read-out: Percentages of residual activities of the kinase reaction
Description: as §1

PRAK = PRAK (Homo sapiens, UniProt Q8IW41); assay: biochemical; conditions: read-out: Percentages of residual activities of the kinase reaction
Sequence of PRAK (Q8IW41 whole entry, species assumed): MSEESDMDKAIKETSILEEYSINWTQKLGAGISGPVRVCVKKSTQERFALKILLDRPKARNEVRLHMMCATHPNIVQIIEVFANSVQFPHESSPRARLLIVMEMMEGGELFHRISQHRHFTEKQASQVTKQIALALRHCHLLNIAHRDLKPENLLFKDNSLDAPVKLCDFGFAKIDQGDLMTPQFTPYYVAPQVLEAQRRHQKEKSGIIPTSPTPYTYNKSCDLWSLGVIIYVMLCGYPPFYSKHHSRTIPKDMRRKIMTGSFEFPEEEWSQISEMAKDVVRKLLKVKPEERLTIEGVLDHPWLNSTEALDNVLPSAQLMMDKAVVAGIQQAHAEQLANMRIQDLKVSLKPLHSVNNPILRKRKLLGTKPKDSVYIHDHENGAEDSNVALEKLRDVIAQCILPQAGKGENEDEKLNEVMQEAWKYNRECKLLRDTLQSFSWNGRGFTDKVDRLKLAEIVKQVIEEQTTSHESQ
Description: as §1

STK33 = STK33 (Homo sapiens, UniProt Q9BYT3); assay: biochemical; conditions: read-out: Percentages of residual activities of the kinase reaction
Description: as §1

SYK = SYK (Homo sapiens, UniProt P43405); assay: biochemical; conditions: read-out: Percentages of residual activities of the kinase reaction
Description: as §1

TAO1 = TAO1 (Homo sapiens, UniProt Q7L7X3); assay: biochemical; conditions: read-out: Percentages of residual activities of the kinase reaction
Description: as §1

TIE2 = TIE2 (Homo sapiens, UniProt Q02763); assay: biochemical; conditions: read-out: Percentages of residual activities of the kinase reaction
Description: as §1

TrkA = TrkA (Homo sapiens, UniProt P04629); assay: biochemical; conditions: read-out: Percentages of residual activities of the kinase reaction
Description: as §1

VEG-FR = VEG-FR (Homo sapiens, UniProt P17948); assay: biochemical; conditions: read-out: Percentages of residual activities of the kinase reaction
Description: as §1

p38d MAPK = p38d MAPK (Homo sapiens, UniProt O15264); assay: biochemical; conditions: read-out: Percentages of residual activities of the kinase reaction
Description: as §1

CK1 = assay: PK selectivity profiling, residual kinase activity; format: biochemical; conditions: 1 μM ARC-669, ATP close to Km
CK2 = assay: PK selectivity profiling, residual kinase activity; format: biochemical; conditions: 1 μM ARC-669, ATP close to Km
SmMLCK = biological target: T1, SmMLCK (Homo sapiens, UniProt Q15746); assay: PK selectivity profiling, residual kinase activity; format: biochemical; conditions: 1 μM ARC-669, ATP close to Km, read-out: Percentages of residual activities of the kinase reaction
T1 construct: Division of Signal Transduction Therapy, University of Dundee (contract testing)

[1] = biological target: catalytic subunit of cAMP-dependent protein kinase (PKAc) (Homo sapiens, UniProt P17612); assay: Binding affinity to PKAc; conditions: towards PKAc

Q: Which remaining activity at 1 µM (ABL) does the source give for `CN(C)c1ccc2c(c1)Oc1cc(N(C)C)ccc1C21OC(=O)c2cc(C(=O)NCCCC[C@@H](NC(=O)[C@@H](CCCNC(=N)N)NC(=O)[C@@H](CCCNC(=N)N)NC(=O)[C@@H](CCCNC(=N)N)NC(=O)[C@@H](CCCNC(=N)N)NC(=O)[C@@H](CCCNC(=N)N)NC(=O)[C@@H](CCCNC(=N)N)NC(=O)CCCCCNC(=O)[C@@H](CCCNC(=N)N)NC(=O)CCCCCNC(=O)c3ccc(-c4ccnc(N)n4)s3)C(N)=O)ccc21` [ARC-669] here?
A: 88%

Q: And the remaining activity at 1 µM (BRSK1)?
A: 44%

Q: What about the remaining activity at 1 µM (DYRK2) of the same molecule?
A: 65%

Q: What about the remaining activity at 1 µM (EPH-B2) of the same molecule?
A: 96%

Q: And the remaining activity at 1 µM (EPH-B3)?
A: 75%

Q: What about the remaining activity at 1 µM (ERK8) of the same molecule?
A: 23%

Q: What about the remaining activity at 1 µM (FGF-R1) of the same molecule?
A: 54%

Q: What about the remaining activity at 1 µM (HER4) of the same molecule?
A: 82%

Q: And the remaining activity at 1 µM (HIPK1)?
A: 94%

Q: And the remaining activity at 1 µM (HIPK2)?
A: 63%

Q: And the remaining activity at 1 µM (HIPK3)?
A: 97%

Q: And the remaining activity at 1 µM (IGF-1R)?
A: 38%

Q: What about the remaining activity at 1 µM (IKKb) of the same molecule?
A: 50%

Q: And the remaining activity at 1 µM (JAK2)?
A: 80%

Q: And the remaining activity at 1 µM (JNK1)?
A: 91%

Q: What about the remaining activity at 1 µM (JNK3) of the same molecule?
A: 77%

Q: And the remaining activity at 1 µM (LKB1)?
A: 101%

Q: And the remaining activity at 1 µM (MAPKAP-K2)?
A: 13%

Q: What about the remaining activity at 1 µM (MAPKAP-K3) of the same molecule?
A: 31%

Q: What about the remaining activity at 1 µM (MARK3) of the same molecule?
A: 20%

Q: And the remaining activity at 1 µM (MEKK1)?
A: 19%

Q: What about the remaining activity at 1 µM (MELK) of the same molecule?
A: 31%

Q: What about the remaining activity at 1 µM (MKK2) of the same molecule?
A: 68%

Q: What about the remaining activity at 1 µM (MLK1) of the same molecule?
A: 60%

Q: And the remaining activity at 1 µM (MPSK1)?
A: 97%

Q: And the remaining activity at 1 µM (MSK1)?
A: 3%

Q: And the remaining activity at 1 µM (NEK2a)?
A: 55%

Q: And the remaining activity at 1 µM (NUAK1)?
A: 12%

Q: And the remaining activity at 1 µM (PRAK)?
A: 63%

Q: What about the remaining activity at 1 µM (STK33) of the same molecule?
A: 76%

Q: And the remaining activity at 1 µM (SYK)?
A: 73%

Q: What about the remaining activity at 1 µM (TAO1) of the same molecule?
A: 94%

Q: What about the remaining activity at 1 µM (TIE2) of the same molecule?
A: 86%

Q: What about the remaining activity at 1 µM (TrkA) of the same molecule?
A: 101%

Q: And the remaining activity at 1 µM (VEG-FR)?
A: 25%

Q: And the remaining activity at 1 µM (p38d MAPK)?
A: 104%

Q: What about the “Percentages of residual activities of the kinase reaction” value (CK1) of the same molecule?
A: 72%

Q: And the “Percentages of residual activities of the kinase reaction” value (CK2)?
A: 7%

Q: And the remaining activity at 1 µM (SmMLCK)?
A: 46%

Q: And the Kd [1]?
A: 0.1 nM
